Patent publication US20230406922A1 (SIMCERE ZAIMING PHARMACEUTICAL, published 2023)

T1: monkey CD19, full length, on HEK293T cells (monkey, UniProt P15391 20-556 (human entry))
T1 construct: The entry holds the signal peptide; also called HEK293T-monkey CD19
T1 chain: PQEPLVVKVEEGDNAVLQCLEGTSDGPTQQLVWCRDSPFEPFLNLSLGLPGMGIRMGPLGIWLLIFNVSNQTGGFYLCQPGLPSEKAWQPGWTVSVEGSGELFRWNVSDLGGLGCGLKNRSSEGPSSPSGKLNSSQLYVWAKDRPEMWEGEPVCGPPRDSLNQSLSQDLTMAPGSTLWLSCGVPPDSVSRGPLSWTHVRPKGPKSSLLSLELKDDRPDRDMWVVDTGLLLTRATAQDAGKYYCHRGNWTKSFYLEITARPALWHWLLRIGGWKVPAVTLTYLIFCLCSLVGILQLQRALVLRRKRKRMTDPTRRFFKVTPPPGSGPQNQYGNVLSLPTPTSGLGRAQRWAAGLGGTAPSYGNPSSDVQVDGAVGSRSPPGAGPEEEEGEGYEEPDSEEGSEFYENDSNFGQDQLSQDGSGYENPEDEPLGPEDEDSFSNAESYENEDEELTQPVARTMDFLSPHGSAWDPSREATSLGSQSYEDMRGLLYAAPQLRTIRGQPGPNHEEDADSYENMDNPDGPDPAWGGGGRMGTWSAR

T2: cynomolgus monkey CD19 on peripheral blood B cells (cynomolgus monkey (Macaca fascicularis), UniProt A0A2K5W8L9 20-557)
T2 construct: whole, on cells; also called cynomolgus monkey B cells
T2 sequence: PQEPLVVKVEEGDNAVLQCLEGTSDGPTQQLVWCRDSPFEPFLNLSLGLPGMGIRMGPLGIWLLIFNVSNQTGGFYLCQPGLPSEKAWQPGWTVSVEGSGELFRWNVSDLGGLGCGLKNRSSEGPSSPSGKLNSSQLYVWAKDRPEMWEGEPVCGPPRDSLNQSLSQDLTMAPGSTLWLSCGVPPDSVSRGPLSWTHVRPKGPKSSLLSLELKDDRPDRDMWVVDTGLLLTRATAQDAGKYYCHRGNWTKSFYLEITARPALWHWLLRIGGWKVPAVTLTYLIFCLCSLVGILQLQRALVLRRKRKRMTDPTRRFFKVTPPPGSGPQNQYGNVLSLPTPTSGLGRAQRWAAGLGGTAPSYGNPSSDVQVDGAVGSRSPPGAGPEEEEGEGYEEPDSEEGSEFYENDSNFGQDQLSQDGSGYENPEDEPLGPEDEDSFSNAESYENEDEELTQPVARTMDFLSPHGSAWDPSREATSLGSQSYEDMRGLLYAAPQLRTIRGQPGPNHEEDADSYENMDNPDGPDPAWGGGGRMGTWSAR

B1: FMC63.26-mIgG1 (antibody, V domains shown)
VH: EVTLKESGPVLVKPTETLTLTCTVSGFSLPDYGVSWIRQPPGKALEWLAVIWGSETTYYNSALKSRLTISKDTSKSQVVLTMTNMDPVDTATYYCAKHYYYGGSYAMDYWGQGTTVTVSS
VL: DIQMTQSPSSLSASVGDRVTITCRASQDISKYLNWYQQKPGGAVKLLIYHTSRLHSGVPSRFSGSGSGTDYTLTISSLQPEDFATYYCQQGNTLPYTFGGGTKVEIKR
notes: Humanized FMC63; also called FMC63-L2H6
B2: FMC63.25-mIgG1 (antibody, V domains shown)
VH: EVTLKESGPVLVKPTETLTLTCTVSGFSLSDYGVSWIRQPPGKALEWLAVIWGSETTYYNSALKSRLTISKDTSKSQVVLTMTNMDPVDTATYYCAKHYYYGGSYAMDYWGQGTTVTVSS
VL: DIQMTQSPSSLSASVGDRVTITCRASQDISKYLNWYQQKPGGAVKLLIYHTSRLHSGVPSRFSGSGSGTDYTLTISSLQPEDFATYYCQQGNTLPYTFGGGTKVEIKR
notes: Humanized FMC63; also called FMC63-L2H5

How the values were obtained:
[1] = target: T1, monkey CD19, full length, on HEK293T …; test: FACS on HEK293T-monkey CD19 cells
Protocol: (§1) For suspension cells Raji, the medium supernatant was discarded by direct centrifugation, and the cell pellet was washed twice with PBS. After cell counting of the cells obtained in the last step, the cell pellet was resuspended to 2×10⁶ cells/mL with a blocking solution [PBS+2% (w/w) BSA] and added into a 96-well FACS reaction plate at 50 μL/well. […] After the plate was centrifuged and washed 5 times with a PBS buffer, the results were assayed and analyzed by FACS (FACS Canto™, purchased from BD Biosciences). Data analysis was performed by software (CellQuest) to obtain the mean fluorescence intensity (MFI) of the cells. Then, analysis was performed by software (GraphPad Prism8), data were fitted, and EC₅₀ values were calculated.
(§2) HEK293T-monkey CD19 cells were subjected to the FACS assay and data analysis according to the method described in Example 4.2.

[2] = target: T2, cynomolgus monkey CD19 on peripheral …; test: FACS on cynomolgus monkey PBMC, gated on CD20-positive B cells
Protocol: Monkey peripheral blood mononuclear cells were extracted from fresh cynomolgus monkey peripheral blood (purchased from Shanghai Medicilon Inc.) according to Ficoll-Paque Plus (purchased from GE Healthcare, Cat. No. 171440-02). […] The cells were incubated at room temperature for 1 h. […] The cells were incubated at room temperature for 30 min in the dark, washed 5 times, gently resuspended in PBS, and assayed and analyzed by FACS (FACS Canto™, purchased from BD Biosciences), in which CD20 was used as a marker for B cells.

[3] = target: T1, monkey CD19, full length, on HEK293T …; test: FACS titration on HEK293T-monkey CD19 cells
Protocol: as §1, §2

Binder | EC50 [1] [nM] | maximum mean fluorescence intensity [1] [MFI] | proportion of positive cells to B cells (%) at 1 nM [2] [%] | proportion of positive cells to B cells (%) at 10 nM [2] [%] | proportion of positive cells to B cells (%) at 100 nM [2] [%] | EC50 (read off the curve) [3] [nM]
B1 | 20.3 | 38500 | 3 | 6 | 39 | 
B2 | 1.52 | 34700 | 4 | 10 | 60 | ~0.2
